Patent publication US20090226432A1 (MICROMET, published 2009)

T1: soluble human CEA antigen (human, UniProt P06731 35-685, limits assumed, biotinylated with EZ-Link Sulfo NHS-LC-LC-Biotin in the ELISA (not in the cytotoxicity competition assays))
T1 construct: also called soluble CEA; soluble biotinylated human CEA (Abcam)
T1 sequence: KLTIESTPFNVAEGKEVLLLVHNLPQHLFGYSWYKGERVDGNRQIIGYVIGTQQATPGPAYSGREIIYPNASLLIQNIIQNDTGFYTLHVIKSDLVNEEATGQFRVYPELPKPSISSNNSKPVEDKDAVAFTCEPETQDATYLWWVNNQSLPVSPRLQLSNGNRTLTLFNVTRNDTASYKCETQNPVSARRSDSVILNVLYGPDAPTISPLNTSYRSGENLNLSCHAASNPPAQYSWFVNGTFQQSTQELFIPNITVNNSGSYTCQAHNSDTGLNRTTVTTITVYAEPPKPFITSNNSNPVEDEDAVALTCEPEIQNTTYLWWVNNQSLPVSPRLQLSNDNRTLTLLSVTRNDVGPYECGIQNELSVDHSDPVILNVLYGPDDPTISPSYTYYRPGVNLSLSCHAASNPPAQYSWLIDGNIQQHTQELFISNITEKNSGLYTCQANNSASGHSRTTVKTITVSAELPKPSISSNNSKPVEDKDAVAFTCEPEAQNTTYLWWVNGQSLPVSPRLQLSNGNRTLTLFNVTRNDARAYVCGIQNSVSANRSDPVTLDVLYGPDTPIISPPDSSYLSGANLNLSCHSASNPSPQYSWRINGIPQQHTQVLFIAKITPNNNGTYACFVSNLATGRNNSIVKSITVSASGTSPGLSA


How the values were obtained:
[1] = target: T1, soluble human CEA antigen; assay: refers to Examples 2 and 3 (flow cytometry, ELISA)
[2] = target: T1, soluble human CEA antigen; assay: direct ELISA, biotinylated soluble CEA on streptavidin plate; 0.5 and 5 ug/ml
Procedure: The direct ELISA to determine the specificity of CEA×CD3 bispecific single chain antibody against soluble human CEA was carried out according to standard procedures. Briefly, 50 μl/well PBS or soluble biotinylated human CEA (Abcam; 5 μg/ml in 1×PBS) were immobilized on a 96-well streptavidin-coated ELISA plate (Nunc) by incubating at 4° C. for about 16 hours. After washing with 200 μl water per well 200 μl of blocking solution (PBS/3% BSA) was added. After blocking for 1 h at room temperature the blocking solution was removed. All subsequent washing (200 μl/well of 1×PBS/0.05% (v/v) Tween20) and incubation steps were performed at room temperature. After washing once, the CEAI VHVL×SEQ ID NO.77 VHVL (SEQ ID NO. 8; anti-CEA part derived from mAb A5B7), CEAII VHVL×SEQ ID NO.77 VHVL (SEQ ID NO. 10; anti-CEA part derived from mAb T84.66), and CEAIII VHVL×SEQ ID NO.77 VHVL (SEQ ID NO. 14; anti-CEA part derived from mAb MFE-23) bispecific single chain antibodies, and mouse monoclonal antibody CEA/CD66 Ab-3 (Col-1; Dunn) were incubated in different concentrations (0.5 μg/ml and 5 μg/ml in 1×PBS; 50 μl/well) for 1 hour. 1×PBS (50 μl/well) was added as a control for unspecific binding. 3 washing steps were followed by adding 50 μl/well Penta-His IgG (Qiagen; 2 μg/ml in 1×PBS) for detection of the His-tagged bispecific single chain antibodies. Subsequently, the wells were washed 3 times and incubated with 50 μl of a horseradish peroxidase-labelled goat anti-mouse Fc gamma-specific antibody (Jackson ImmuneResearch; 1:1000 in 1×PBS) for 1 hour. After washing 3 times the ELISA was developed by adding ABTS substrate solution (Roche) and the absorbance was measured at a wavelength of 405 nm.

[3] = target: T1, soluble human CEA antigen; assay: refers to the ELISA of FIG. 2

Binder | binding result [2] | binding result [3] | other results
CEA III VLVH x SEQ ID NO. 77 VHVL (bispecific antibody, Bispecific single chain antibody; anti-CEA part from mAb MFE-23; also called CEA III-LH) ENVLTQSPAIMSASPGEKVTITCSASSSVSYMHWFQQKPGTSPKLWIYSTSNLASGVPARFSGSGSGTSYSLTISRMEAEDAATYYCQQRSSYPLTFGAGTKLELKGGGGSGGGGSGGGGSQVKLQQSGAELVRSGTSVKLSCTASGFNIKDSYMHWLRQGPEQGLEWIGWIDPENGDTEYAPKFQGKATFTTDTSSNTAYLQLSSLTSEDTAVYYCNEGTPTGPYYFDYWGQGTTVTVSSGGGGSDVQLVQSGAEVKKPGASVKVSCKASGYTFTRYTMHWVRQAPGQGLEWIGYINPSRGYTNYADSVKGRFTITTDKSTSTAYMELSSLRSEDTATYYCARYYDDHYCLDYWGQGTTVTVSSGEGTSTGSGGSGGSGGADDIVLTQSPATLSLSPGERATLSCRASQSVSYMNWYQQKPGKAPKRWIYDTSKVASGVPARFSGSGSGTDYSLTINSLEAEDAATYYCQQWSSNPLTFGGGTKVEIK | – | – | binding result [1]: binds
CEA II VHVL x SEQ ID NO. 77 VHVL (bispecific antibody, Bispecific single chain antibody; anti-CEA part from mAb T84.66; also called CEA II HL) EVQLQQSGAELVEPGASVKLSCTASGFNIKDTYMHWVKQRPEQGLEWIGRIDPANGNSKYVPKFQGKATITADTSSNTAYLQLTSLTSEDTAVYYCAPFGYYVSDYAMAYWGQGTSVTVSSGGGGSGGGGSGGGGSDIVLTQSPASLAVSLGQRATMSCRAGESVDIFGVGFLHWYQQKPGQPPKLLIYRASNLESGIPVRFSGTGSRTDFTLIIDPVEADDVATYYCQQTNEDPYTFGGGTKLEIKSGGGGSDVQLVQSGAEVKKPGASVKVSCKASGYTFTRYTMHWVRQAPGQGLEWIGYINPSRGYTNYADSVKGRFTITTDKSTSTAYMELSSLRSEDTATYYCARYYDDHYCLDYWGQGTTVTVSSGEGTSTGSGGSGGSGGADDIVLTQSPATLSLSPGERATLSCRASQSVSYMNWYQQKPGKAPKRWIYDTSKVASGVPARFSGSGSGTDYSLTINSLEAEDAATYYCQQWSSNPLTFGGGTKVEIK | binds | – | –
CEA I VLVH x SEQ ID NO. 77 VHVL (bispecific antibody, Bispecific single chain antibody; anti-CEA part from murine mAb A5B7; also called CEA I-LH) DIELTQSPAILSASPGEKVTMTCRASSSVTYIHWYQQKPGSSPKSWIYATSNLASGVPARFSGSGSGTSYSLTISRVEAEDAATYYCQHWSSKPPTFGGGTKLEIKGGGGSGGGGSGGGGSQVQLQESGGGLVQPGGSLRLSCATSGFTFTDYYMNWVRQPPGKALEWLGFIGNKANGYTTEYSASVKGRFTISRDKSQSILYLQMNTLRAEDSATYYCTRDRGLRFYFDYWGQGTTVTVSSGGGGSDVQLVQSGAEVKKPGASVKVSCKASGYTFTRYTMHWVRQAPGQGLEWIGYINPSRGYTNYADSVKGRFTITTDKSTSTAYMELSSLRSEDTATYYCARYYDDHYCLDYWGQGTTVTVSSGEGTSTGSGGSGGSGGADDIVLTQSPATLSLSPGERATLSCRASQSVSYMNWYQQKPGKAPKRWIYDTSKVASGVPARFSGSGSGTDYSLTINSLEAEDAATYYCQQWSSNPLTFGGGTKVEIK | – | binds | –
CEA III VHVL x SEQ ID NO. 77 VHVL (bispecific antibody, Bispecific single chain antibody; anti-CEA part from mAb MFE-23; also called CEA III-HL) QVKLQQSGAELVRSGTSVKLSCTASGFNIKDSYMHWLRQGPEQGLEWIGWIDPENGDTEYAPKFQGKATFTTDTSSNTAYLQLSSLTSEDTAVYYCNEGTPTGPYYFDYWGQGTTVTVSSGGGGSGGGGSGGGGSENVLTQSPAIMSASPGEKVTITCSASSSVSYMHWFQQKPGTSPKLWIYSTSNLASGVPARFSGSGSGTSYSLTISRMEAEDAATYYCQQRSSYPLTFGAGTKLELKSGGGGSDVQLVQSGAEVKKPGASVKVSCKASGYTFTRYTMHWVRQAPGQGLEWIGYINPSRGYTNYADSVKGRFTITTDKSTSTAYMELSSLRSEDTATYYCARYYDDHYCLDYWGQGTTVTVSSGEGTSTGSGGSGGSGGADDIVLTQSPATLSLSPGERATLSCRASQSVSYMNWYQQKPGKAPKRWIYDTSKVASGVPARFSGSGSGTDYSLTINSLEAEDAATYYCQQWSSNPLTFGGGTKVEIK | binds | – | –
SEQ ID NO. 77 VHVL x CEA I VLVH (bispecific antibody, Bispecific single chain antibody, anti-CD3 part N-terminal, anti-CEA part from mAb A5B7) DVQLVQSGAEVKKPGASVKVSCKASGYTFTRYTMHWVRQAPGQGLEWIGYINPSRGYTNYADSVKGRFTITTDKSTSTAYMELSSLRSEDTATYYCARYYDDHYCLDYWGQGTTVTVSSGEGTSTGSGGSGGSGGADDIVLTQSPATLSLSPGERATLSCRASQSVSYMNWYQQKPGKAPKRWIYDTSKVASGVPARFSGSGSGTDYSLTINSLEAEDAATYYCQQWSSNPLTFGGGTKVEIKSGGGGSDIELTQSPAILSASPGEKVTMTCRASSSVTYIHWYQQKPGSSPKSWIYATSNLASGVPARFSGSGSGTSYSLTISRVEAEDAATYYCQHWSSKPPTFGGGTKLEIKGGGGSGGGGSGGGGSQVQLQESGGGLVQPGGSLRLSCATSGFTFTDYYMNWVRQPPGKALEWLGFIGNKANGYTTEYSASVKGRFTISRDKSQSILYLQMNTLRAEDSATYYCTRDRGLRFYFDYWGQGTTVTVSS | – | binds | –
SEQ ID NO. 77 VHVL x CEA I VHVL (bispecific antibody, Bispecific single chain antibody, anti-CD3 part N-terminal, anti-CEA part from mAb A5B7) DVQLVQSGAEVKKPGASVKVSCKASGYTFTRYTMHWVRQAPGQGLEWIGYINPSRGYTNYADSVKGRFTITTDKSTSTAYMELSSLRSEDTATYYCARYYDDHYCLDYWGQGTTVTVSSGEGTSTGSGGSGGSGGADDIVLTQSPATLSLSPGERATLSCRASQSVSYMNWYQQKPGKAPKRWIYDTSKVASGVPARFSGSGSGTDYSLTINSLEAEDAATYYCQQWSSNPLTFGGGTKVEIKSGGGGSQVQLQESGGGLVQPGGSLRLSCATSGFTFTDYYMNWVRQPPGKALEWLGFIGNKANGYTTEYSASVKGRFTISRDKSQSILYLQMNTLRAEDSATYYCTRDRGLRFYFDYWGQGTTVTVSSGGGGSGGGGSGGGGSDIELTQSPAILSASPGEKVTMTCRASSSVTYIHWYQQKPGSSPKSWIYATSNLASGVPARFSGSGSGTSYSLTISRVEAEDAATYYCQHWSSKPPTFGGGTKLEIK | – | binds | –
CEA I VHVL x SEQ ID NO. 77 VHVL (bispecific antibody, Bispecific single chain antibody; also called CEA I-HL) QVQLQESGGGLVQPGGSLRLSCATSGFTFTDYYMNWVRQPPGKALEWLGFIGNKANGYTTEYSASVKGRFTISRDKSQSILYLQMNTLRAEDSATYYCTRDRGLRFYFDYWGQGTTVTVSSGGGGSGGGGSGGGGSDIELTQSPAILSASPGEKVTMTCRASSSVTYIHWYQQKPGSSPKSWIYATSNLASGVPARFSGSGSGTSYSLTISRVEAEDAATYYCQHWSSKPPTFGGGTKLEIKSGGGGSDVQLVQSGAEVKKPGASVKVSCKASGYTFTRYTMHWVRQAPGQGLEWIGYINPSRGYTNYADSVKGRFTITTDKSTSTAYMELSSLRSEDTATYYCARYYDDHYCLDYWGQGTTVTVSSGEGTSTGSGGSGGSGGADDIVLTQSPATLSLSPGERATLSCRASQSVSYMNWYQQKPGKAPKRWIYDTSKVASGVPARFSGSGSGTDYSLTINSLEAEDAATYYCQQWSSNPLTFGGGTKVEIK | binds | – | –
